Three variants from IntAct's records for PubMed 20407420 can be followed below.

First the molecules themselves.
B1: Two-component response regulator-like APRR1 (Arabidopsis thaliana (Mouse-ear cress)), Q9LKL2 (parent)
chain: MDLNGECKGGDGFIDRSRVRILLCDNDSTSLGEVFTLLSECSYQVTAVKSARQVIDALNAEGPDIDIILAEIDLPMAKGMKMLRYITRDKDLRRIPVIMMSRQDEVPVVVKCLKLGAADYLVKPLRTNELLNLWTHMWRRRRMLGLAEKNMLSYDFDLVGSDQSDPNTNSTNLFSDDTDDRSLRSTNPQRGNLSHQENEWSVATAPVHARDGGLGADGTATSSLAVTAIEPPLDHLAGSHHEPMKRNSNPAQFSSAPKKSRLKIGESSAFFTYVKSTVLRTNGQDPPLVDGNGSLHLHRGLAEKFQVVASEGINNTKQARRATPKSTVLRTNGQDPPLVNGNGSHHLHRGAAEKFQVVASEGINNTKQAHRSRGTEQYHSQGETLQNGASYPHSLERSRTLPTSMESHGRNYQEGNMNIPQVAMNRSKDSSQVDGSGFSAPNAYPYYMHGVMNQVMMQSAAMMPQYGHQIPHCQPNHPNGMTGYPYYHHPMNTSLQHSQMSLQNGQMSMVHHSWSPAGNPPSNEVRVNKLDRREEALLKFRRKRNQRCFDKKIRYVNRKRLAERRPRVKGQFVRKMNGVNVDLNGQPDSADYDDEEEEEEEEEEENRDSSPQDDALGT
partner: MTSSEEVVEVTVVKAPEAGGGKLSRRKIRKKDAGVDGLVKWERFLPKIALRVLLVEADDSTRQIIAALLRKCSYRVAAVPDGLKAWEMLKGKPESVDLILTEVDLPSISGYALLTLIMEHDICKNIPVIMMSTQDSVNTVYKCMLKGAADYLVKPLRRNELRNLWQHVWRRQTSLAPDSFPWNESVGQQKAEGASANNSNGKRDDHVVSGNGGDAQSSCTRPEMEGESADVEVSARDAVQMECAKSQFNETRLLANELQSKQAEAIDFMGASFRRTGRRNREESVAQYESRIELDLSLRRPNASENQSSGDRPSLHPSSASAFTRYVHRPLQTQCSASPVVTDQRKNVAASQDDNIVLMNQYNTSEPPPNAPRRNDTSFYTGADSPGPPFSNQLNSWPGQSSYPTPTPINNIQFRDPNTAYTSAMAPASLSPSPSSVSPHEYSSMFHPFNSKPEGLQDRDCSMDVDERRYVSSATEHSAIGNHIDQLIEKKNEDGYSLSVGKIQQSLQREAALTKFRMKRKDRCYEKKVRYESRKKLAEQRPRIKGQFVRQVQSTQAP
B2: Two-component response regulator-like APRR1 (Arabidopsis thaliana (Mouse-ear cress)), Q9LKL2 (parent)
chain: B1 chain

The first experiment covers variants of B1. The settings on record: with aprr5_arath APRR5, Q6LA42.
For P124S, the “effect of a mutation on the interaction” value is “decreasing interaction”.

Another experiment covers variants of B1. As to conditions: with aprr5_arath APRR5, Q6LA42. The source holds these as a separate data set.
Take P96L: the “effect of a mutation on the interaction” value was “disrupting interaction”.

The variants in the next experiment derive from B2. The settings on record: with ado1_arath ADO1, Q94BT6.
Sequence of ado1_arath ADO1, Q94BT6 (Q94BT6 whole entry): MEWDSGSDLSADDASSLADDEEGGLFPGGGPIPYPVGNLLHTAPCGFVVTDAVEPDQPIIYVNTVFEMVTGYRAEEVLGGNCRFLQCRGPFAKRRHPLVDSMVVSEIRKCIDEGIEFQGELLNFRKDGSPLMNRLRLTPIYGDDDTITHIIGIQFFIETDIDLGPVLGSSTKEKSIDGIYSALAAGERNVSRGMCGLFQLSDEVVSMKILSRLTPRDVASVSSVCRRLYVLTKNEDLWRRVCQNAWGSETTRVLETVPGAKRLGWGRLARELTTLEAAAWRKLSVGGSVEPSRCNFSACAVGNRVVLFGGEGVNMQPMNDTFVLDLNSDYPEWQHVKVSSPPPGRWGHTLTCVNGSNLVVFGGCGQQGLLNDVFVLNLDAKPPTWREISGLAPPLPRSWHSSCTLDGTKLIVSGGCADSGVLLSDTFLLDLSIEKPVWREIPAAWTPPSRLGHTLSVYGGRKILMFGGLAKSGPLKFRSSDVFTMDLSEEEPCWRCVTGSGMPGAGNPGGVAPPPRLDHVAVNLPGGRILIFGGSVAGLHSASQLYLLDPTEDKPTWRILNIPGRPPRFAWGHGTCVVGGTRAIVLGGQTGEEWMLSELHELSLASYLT
As to P96L, the “effect of a mutation on the interaction” value is “decreasing interaction”.
